The record followed here is the supplement of paper PMC12042874.

This series in a line: amyloid nucleation score (Sup35N fusion, yeast selection) (log enrichment); library NNK2; higher = more nucleation; inactive = no reads after selection. The method, boiled down: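 Psi-negative yeast expressed Sup35N fused to peptides of 20 random codons. They were induced 24 hours with 100 μM copper sulfate, grown 7 days at 30°C without adenine and uracil, and their plasmid inserts from input and output were Illumina-sequenced. The nucleation score is the DiMSum log enrichment of output over input reads, centred on the mode score of non-aggregating sequences. Sequences with under 100 input reads were excluded.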

± gives the uncertainty stated by the source.

As for VTANNFKWVVIWLSWRGYGD, the amyloid nucleation score was -1.48 ± 1.1.

MNLPKFNSYLMDSANARASP: the amyloid nucleation score is 0.58 ± 0.19.

QVCFHDQ returned an amyloid nucleation score of -0.589 ± 0.48.

Consider VRLRTHMFY, for which the amyloid nucleation score is -0.831 ± 0.76. The substance IEIHALRPEQMFSVLGYGVQ returned an amyloid nucleation score of 0.146 ± 0.27.

VARFILHCY registered an amyloid nucleation score of -0.492 ± 0.28. WFPALEYKCAQGQDRQQRPV: the amyloid nucleation score came out at 0.351 ± 0.74. The value for LFFCDPWPHLMWHLPRIVHL was -0.748 ± 0.42; that for LDLRMRYQVPYQWGTNSAEN was 0.629 ± 0.48. In the case of GDCNGSLLKWWR it was 0.395 ± 0.55; in that of PCITRTARSQIVTFKRG, -0.35 ± 1.1; in that of FSRMPLMDESFWFTCSICVM, 2.64 ± 0.068.

FIKMSNSWAYDAEFSVPLHM showed an amyloid nucleation score of 3.84 ± 0.047. On to PWNLLGWLRRS, for which the amyloid nucleation score is 0.108 ± 0.23.

On to NDFWRYV, for which the amyloid nucleation score is -0.591 ± 0.24. As for YGPYSLSSF, the amyloid nucleation score is -0.105 ± 1.1. For the substance HYCSVRMWLTTKEADPRTSL, the amyloid nucleation score turned out to be 0.739 ± 0.31. As to TDLIAVGCPLMYSMRE, the amyloid nucleation score stood at 2.04 ± 0.35.

In the case of YIGCNNYEGKNKCVIFLSFS, the amyloid nucleation score is 6.079 ± 0.05. As for TLFQLFIYLTFKVQVVAGTT, the amyloid nucleation score stood at 3.92 ± 0.083.

GGWRVSGNTSRSISRPCWRG had an amyloid nucleation score of 0.483 ± 0.27. In the case of ECVRTLFYKLMTFAWLELRS, the amyloid nucleation score was -1.02 ± 0.76. Turning to LVSLVQRYLDHRPDNKM, the amyloid nucleation score was -0.05 ± 0.48. For the substance NTVHWSDSCRLFPHRDQQCF, the amyloid nucleation score is -0.694 ± 0.61. The substance NTSIQQIPLMSRLGVAFVIW came in with an amyloid nucleation score of -0.781 ± 0.54. For YQLLLFV, the amyloid nucleation score was -0.969 ± 0.41. As to LMFARTMRSVRRFFYVGFHH, the amyloid nucleation score result is “inactive”. In the case of ICGVSFTGAIYARGGRLRIR it was 0.145 ± 0.63; in that of YSAFHSMENQTRKMFMEPLP, -0.311 ± 0.79; in that of DNLNRAKFDLELVESGFWVV, “inactive”. GNIDGLLQFEYRW had an amyloid nucleation score of 0.552 ± 0.66. Turning to FMELLYHSASYSARFTRKSR, the amyloid nucleation score was 2.69 ± 0.098.

Regarding LSMQKCSLIIISRCGRSRNM, the amyloid nucleation score came out at 3.77 ± 0.057. Substance FSRYGRMRFLHCSTFSLMPI returned an amyloid nucleation score of -0.07 ± 0.76. In the case of TAHYLFTWTLSNVILVCGYD it was -0.867 ± 0.48; in that of VALFS, -0.029 ± 0.8.

GYYAPIPLKCVDSEASLRYR came in with an amyloid nucleation score of 0.308 ± 0.36.

YIVACSWYSGLLGLVGYRRK had an amyloid nucleation score of 7.884 ± 0.036. In the case of RSWKLGVDGWPLMSEFP it was 1.64 ± 0.29. In the case of MCMLTLRLNQLYMAIMHG it was 0.603 ± 0.36; in that of RLCANDLIIGVEMGEGVFDY, 1.1 ± 0.31; in that of CNILH, 1.36 ± 0.3.

With GRCTGLLCLALVVIYQ, the amyloid nucleation score came to 0.358 ± 0.39. Substance KVPMICSMEWRPLVSSHCTR yielded an amyloid nucleation score of -0.718 ± 0.76. In the case of GLVRERIDTAHPRSTSYC it was 0.561 ± 0.62; in that of YCFSVYKGVGIGKKCGYLSS, “inactive”.

Substance FVIVVFRPLGKWQRLFFCNC yielded an amyloid nucleation score of 0.811 ± 0.21.

RPRRSTGCIFVDCKSKQHCI showed an amyloid nucleation score of 2.84 ± 0.15.

Consider FKSCLAGVGLFILMRFHNIA, for which the amyloid nucleation score result was “inactive”.

In turn, PLGSMTNDTTDRNFEVSGRG yielded an amyloid nucleation score of -0.106 ± 0.31. In the case of MRMYLGVDSENRASDMGRTR it was 1.03 ± 0.36; in that of HRCNMGLSWTGVYQRVGKSS, 0.757 ± 0.57; in that of GLYNFLLSGQ, “inactive”.

NLDCLYTLAS gave an amyloid nucleation score of 0.339 ± 0.8. The substance DVLFDITNNGHSSLLAAV yielded an amyloid nucleation score of 0.224 ± 0.8. Regarding TQFFFDFFE, the amyloid nucleation score is 0.432 ± 0.4.

QVVDGWWGNYFIV registered an amyloid nucleation score of -1.92 ± 0.78. ASVPCVIMGRASRPRVPRMS: the amyloid nucleation score was 1.42 ± 0.29. Substance VMNHSQL displayed an amyloid nucleation score of 3.92 ± 0.051. The value for HMYLDMPAQLTS was 2.69 ± 0.062; that for CKTHPKKNSGFWRKLKGCLG was 3.17 ± 0.15.

In turn, TLQCDVNTVLILHVYTTYKS displayed an amyloid nucleation score of 1.13 ± 0.24. In the case of CRNQMQGWWYVWMVGVCRGS it was “inactive”; in that of QVKLFYRLRPSFLCVFPFNL, “inactive”. Turning to LIPHSTSHRGFKLYSRVFYP, the amyloid nucleation score was -0.047 ± 1.1. As to DFMSSVFCQAVWVHAPRRVR, the amyloid nucleation score was 0.6 ± 0.74. The value for WRGLGVLYVSCVDSRVSSI was -1.73 ± 0.75; that for NCNRYRMRTKFRRSYMGSVR was 0.157 ± 0.28.

Substance CSTLVRIR yielded an amyloid nucleation score of 0.723 ± 0.46. The substance ECNQCWNMGMM registered an amyloid nucleation score of -0.252 ± 0.76. As to ASWIAGYITMHTISSFP, the amyloid nucleation score turned out to be 0.056 ± 0.36. GVSVSSLSACPKEDFGSFSE yielded an amyloid nucleation score of 0.051 ± 0.63. With WISIRSTNRRKLRHRSYATV, the amyloid nucleation score came out at 0.56 ± 0.56.

Regarding LMCVLTIL, the amyloid nucleation score amounted to 1.25 ± 0.32.

FVTRGSVAMTQVGYNTVIRM gave an amyloid nucleation score of 5.64 ± 0.061. Consider LLPSSFVGGVNDVVELLSCG, for which the amyloid nucleation score was 0.092 ± 1.1. In the case of GICLSNTGRMCFG it was 0.009 ± 0.39; in that of KGGLRISSLVTYM, 0.274 ± 1.1. The value for IYCLRAGTKHSSLLGAKEDK was 0.594 ± 0.66; that for VAPTETRVDPIPSVGPVPGA was 1.66 ± 0.34; that for MFMTVRWNVAINLELFTVID was -0.34 ± 0.39. In the case of LTVLFVLTVCFNVAMGCCLS it was -0.223 ± 0.76. SMYSYHHSYRSDTKTSNFFW: the amyloid nucleation score came to 3.4 ± 0.072. For the substance GADGTSVLDFCDSVTV, the amyloid nucleation score was -1.32 ± 0.44. Substance LIRSFNSSYVEGRHANI came in with an amyloid nucleation score of 2.69 ± 0.14. SVWWSSNFINPPDFCNM came in with an amyloid nucleation score of -1.19 ± 1.1.

The substance PPDSTWYC gave an amyloid nucleation score of 0.452 ± 0.53.

Substance STARRRCYFGFGLGQSSAAI came in with an amyloid nucleation score of -0.891 ± 1.1. Substance DKYITCVESWWPSILGGEKP gave an amyloid nucleation score of 1.87 ± 0.23. In the case of TTFTIWAYMVAHQYLEIGCI it was “inactive”; in that of DARFLPVVLRKKTDSICYVN, -0.177 ± 0.79; in that of WRQSVQ, 1.12 ± 0.33. The value for TSARRQLDDQRAWPEMAN was 0.239 ± 0.62; that for VIYLVLGKTRLNIELSVLST was 1.16 ± 0.45. The substance FSTQGTPSSSLDWLNRLTVW registered an amyloid nucleation score of 0.102 ± 0.36.

MGAVESGKSRSMCAVLAWSE: the amyloid nucleation score came out at 1.02 ± 0.41. In the case of NIFRMHLGQASQVIIFLDCR it was 4.58 ± 0.12; in that of SGGHKWVYFASCISFLRPWR, -0.069 ± 0.55; in that of HQYGLNIKCFKCAILSKSGT, -0.562 ± 1. The value for GKIKTVFWSKDLRFVFIMCV was -0.633 ± 0.48; that for RKLIFVMTRRLGRSSRTVLM was 0.112 ± 1.1; that for FLPYVIRRGWSCCPSGKWRN was 0.03 ± 0.55. The value for NLLLVFSILNSGRMTLNDNK was 5.48 ± 0.094; that for RSCMMCTT was 0.266 ± 0.41; that for TNRRILSFGVNL was -0.427 ± 0.78. In turn, LRGLCRVHWRSERAQSMRPG had an amyloid nucleation score of 0.892 ± 0.45. In the case of LSRRAINHFYNIITEVAGRG, the amyloid nucleation score entry was “inactive”. In the case of RMYLVYNFLRLDLSARVVLA it was “inactive”.

Take QLPNPKNMISIGNYWKQRSF: the amyloid nucleation score is -1.47 ± 1.1.

For the substance QGCLRQVQMRDRATRIGEVI, the amyloid nucleation score was determined as 0.47 ± 0.25. The value for WICFYDYWQGFSHNDCREME was -0.97 ± 0.36. The value for SPAWRNGDPRKKATPTHTGI was 0.004 ± 1.1; that for SFLRSTSRDPKGCVKMRYFT was 1.17 ± 0.2; that for ESTAWAQVIPDNRLCGRNCR was -0.153 ± 1.1.

In the case of IPRIDDSDLFRTLDF, the amyloid nucleation score was -0.52 ± 1.1.

The substance QTCCTSNEQEFVALA came in with an amyloid nucleation score of 0.414 ± 0.32. The value for GVQETSYVALCSSLVTRTFV was 1.16 ± 0.44; that for RVNTLLHILMYFNCLSGVEL was 4.88 ± 0.049; that for LHWGEFEYCILCARGDIKR was -0.755 ± 0.5.

For the substance LIVESI, the amyloid nucleation score entry was “inactive”.

QNGAALRLIGIWGNGGCK: the amyloid nucleation score was -0.003 ± 1.1. In the case of EGAVLRLALGVGTNLNQLSV it was 0.098 ± 0.37; in that of VLSNKFI, “inactive”; in that of VLAKISTTE, 0.705 ± 0.15. In the case of WDPLSSCKGACDM it was 0.717 ± 0.43; in that of LIVKCSYLSWQAGIWAGFGY, 2.9 ± 0.089; in that of KTCTLIGAMLIA, -0.385 ± 0.56. With IARVDLKFMESIRSHMV, the amyloid nucleation score is 1.71 ± 0.56. SREVFDVLGKFFCSPQDRVV came in with an amyloid nucleation score of 0.294 ± 0.8. In the case of APVMYVT it was 0.057 ± 0.48; in that of KPRMWIYIFMAWEAYPAYI, “inactive”. In the case of SSLDWWSCSGFLNKQQIKSN it was 1.08 ± 0.12; in that of IADQTSSSDYLVRTVFNFSV, 1.72 ± 0.099. In the case of VGVWATGRGCSISEYNGKNR, the amyloid nucleation score was 1.09 ± 0.12. PFSWVASDNTYQSTSLSIVH: the amyloid nucleation score is 0.995 ± 0.51. Take FGNSDLNRAMLKRAKQMRSL: the amyloid nucleation score result was “inactive”. With DIDGWCTIYMDIVYMKTCPY, the amyloid nucleation score was 0.262 ± 0.56.

MDYNLIKCAPWT: the amyloid nucleation score entry was “inactive”.
